Common to all, as to experiment: cell-based or functional assay
Test [1] addresses HIV-1 Env of isolate MGRM-G-009 (subtype G) (HIV-1).
Test [2] concerns the target HIV-1 Env of pseudovirus isolate JR-FL (clade B) (HIV-1).
Test [3] deals with HIV-1 Env of isolate MGRM-AE-002 (pseudovirus) (HIV-1).
Test [4] deals with HIV-1 IAVI-C22 envelope (Env) on pseudovirus (HIV-1).
Test [5] deals with HIV-1 Env of isolate MGRM-D-022 (clade D pseudovirus) (HIV-1).
The target of test [6] is HIV-1 envelope glycoprotein (Env) of isolate MGRM-C-007 (HIV-1).
Test [7] has as its target HIV-1 envelope glycoprotein (Env) of isolate LAVI_C22 (HIV-1).
Test [8] has as its target HIV-1 MGRM-G-001 Env (pseudovirus) (HIV-1).
Test [9] concerns the target HIV-1 92TH021 envelope (Env) on pseudovirus (HIV-1).
Test [10] has as its target HIV-1 VLGCA1 envelope glycoprotein (Env) on pseudovirus (HIV-1 (clade A)).
Test [11] addresses HIV-1 MGRM-AE-002 Env (pseudovirus) (HIV-1).
Test [12] concerns the target HIV-1 Env of isolate MGRM-D-002 (clade D pseudovirus) (HIV-1).
Test [13] deals with HIV-1 Env of isolate MGRM-D-008 (clade D pseudovirus) (HIV-1).
Test [14] deals with HIV-1 MGRM-AG-013 Env (pseudovirus) (HIV-1).
Test [15] deals with HIV-1 MGRM-AE-001 Env (pseudovirus) (HIV-1).
Test [16] addresses HIV-1 Env of isolate APV_6, clade B (HIV-1).
Test [17] concerns the target HIV-1 92BR020 envelope (Env) on pseudovirus (HIV-1).
Test [18] has as its target HIV-1 Env of isolate 92RW020 (Clade A) (HIV-1).
Test [19] addresses HIV-1 Env of isolate MGRM-A-009 (clade A pseudovirus) (HIV-1).
The target of test [20] is HIV-1 Env of isolate MGRM-D-003 (clade D pseudovirus) (HIV-1).
Test [21] deals with HIV-1 Env of isolate MGRM-A-007 (clade A pseudovirus) (HIV-1).
Test [22] concerns the target HIV-1 Env of isolate MGRM-D-018 (clade D pseudovirus) (HIV-1).
Test [23] addresses HIV-1 Env of isolate MGRM-A-003 (clade A pseudovirus) (HIV-1).
In test [24] the target is HIV-1 Env of isolate 93UG077 (clade A pseudovirus) (HIV-1).
Test [25] concerns the target HIV-1 Env of isolate MGRM-D-013 (clade D pseudovirus) (HIV-1).
In test [26] the target is HIV-1 Env of isolate MGRM-F1-018 (HIV-1).
Test [27] has as its target HIV-1 Env of isolate MGRM-AG-003 (pseudovirus) (HIV-1).
Test [28] concerns the target HIV-1 Env of isolate MGRM-F1-023 (HIV-1).
For test [29], the target named is HIV-1 envelope glycoprotein (Env) of isolate MG RM-A-010, subtype A (HIV-1).

Chain of 4995_P16 (PGT-145) (antibody) (VH): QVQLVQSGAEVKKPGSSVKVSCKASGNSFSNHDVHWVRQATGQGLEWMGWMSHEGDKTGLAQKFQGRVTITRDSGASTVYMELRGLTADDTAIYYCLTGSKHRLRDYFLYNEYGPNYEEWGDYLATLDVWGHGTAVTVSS
Chain of 4995_P16 (PGT-145) (antibody) (VL): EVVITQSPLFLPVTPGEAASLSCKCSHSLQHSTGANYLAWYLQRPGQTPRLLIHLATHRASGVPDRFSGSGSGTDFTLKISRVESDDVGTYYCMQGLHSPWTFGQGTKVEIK
Chain of 1443_C16 (PG16) (TCN-116) (antibody) (VH): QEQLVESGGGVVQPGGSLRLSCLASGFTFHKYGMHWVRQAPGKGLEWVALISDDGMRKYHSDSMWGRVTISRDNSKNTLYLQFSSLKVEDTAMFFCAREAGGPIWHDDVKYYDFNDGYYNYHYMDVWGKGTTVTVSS
Chain of 1443_C16 (PG16) (TCN-116) (antibody) (VL): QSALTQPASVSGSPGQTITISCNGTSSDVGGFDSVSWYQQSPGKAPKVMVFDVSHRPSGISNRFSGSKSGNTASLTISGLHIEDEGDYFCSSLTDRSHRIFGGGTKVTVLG
Chain of 4970_K22 (PGT-144) (antibody) (VH): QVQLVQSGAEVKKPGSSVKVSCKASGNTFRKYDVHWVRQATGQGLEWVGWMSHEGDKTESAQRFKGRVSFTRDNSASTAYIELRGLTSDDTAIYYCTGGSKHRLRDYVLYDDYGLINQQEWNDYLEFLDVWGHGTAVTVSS
Chain of 4970_K22 (PGT-144) (antibody) (VL): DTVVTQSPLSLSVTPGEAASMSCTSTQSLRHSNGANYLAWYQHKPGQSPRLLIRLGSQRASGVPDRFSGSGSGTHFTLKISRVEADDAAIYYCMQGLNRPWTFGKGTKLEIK
Chain of 4995_E20 (PGT-142) (antibody) (VH): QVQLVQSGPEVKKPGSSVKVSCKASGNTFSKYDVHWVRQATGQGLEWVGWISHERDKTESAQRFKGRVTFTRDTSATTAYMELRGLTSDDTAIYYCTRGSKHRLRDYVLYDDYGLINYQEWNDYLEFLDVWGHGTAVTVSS
Chain of 4995_E20 (PGT-142) (antibody) (VL): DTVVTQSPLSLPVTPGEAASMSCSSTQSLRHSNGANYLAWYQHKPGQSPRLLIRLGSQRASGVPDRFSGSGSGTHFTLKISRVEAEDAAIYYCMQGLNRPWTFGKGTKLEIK
Chain of 4980_N08 (PGT-143) (antibody) (VH): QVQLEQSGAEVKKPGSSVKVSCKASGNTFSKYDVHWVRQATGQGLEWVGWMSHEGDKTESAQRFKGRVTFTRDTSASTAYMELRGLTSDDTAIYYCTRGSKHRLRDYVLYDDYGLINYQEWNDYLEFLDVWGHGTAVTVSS
Chain of 4980_N08 (PGT-143) (antibody) (VL): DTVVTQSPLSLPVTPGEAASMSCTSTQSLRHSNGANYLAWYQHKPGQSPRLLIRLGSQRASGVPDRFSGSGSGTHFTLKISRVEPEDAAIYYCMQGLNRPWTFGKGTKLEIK
Chain of 4993_K13 (PGT-141) (antibody) (VH): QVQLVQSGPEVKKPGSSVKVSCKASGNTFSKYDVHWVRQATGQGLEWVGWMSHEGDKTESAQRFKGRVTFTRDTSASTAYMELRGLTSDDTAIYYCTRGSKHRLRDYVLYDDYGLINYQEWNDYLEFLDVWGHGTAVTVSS

4995_P16 (PGT-145) (antibody) showed an IC50 (µg/mL), pseudovirus neutralization in [1] of 0.982 µg/mL. Besides, the IC50, pseudovirus neutralization in test [2] is 30.4 µg/mL. Also, the IC50 (µg/mL), single-round pseudovirus neutralization in [3] was 1.87 µg/mL.

b12 (antibody): the neutralization IC50 is 3.6 µg/mL in [4], 9.99 µg/mL in test [9] and 27.5 µg/mL in [17]. Also, the IC50, pseudovirus neutralization was 17.6 µg/mL in [5]; greater than 50 µg/mL in test [12]; greater than 50 µg/mL in test [13]; greater than 50 µg/mL in [20]; 1.39 µg/mL in [22]; greater than 50 µg/mL in test [25]. In addition, the IC50 (µg/ml), pseudovirus neutralization was greater than 50 µg/mL in test [6]; 7.64 µg/mL in [7]; greater than 50 µg/mL in test [8]; greater than 50 µg/mL in test [10]; 17.1 µg/mL in [11]; greater than 50 µg/mL in test [14]. The IC50 (µg/ml), pseudovirus neutralization was 25.9 µg/mL in [15]; greater than 50 µg/mL in test [16]; 4.34 µg/mL in test [19]; greater than 50 µg/mL in test [21]; greater than 50 µg/mL in [23]; 47 µg/mL in [24]. This substance displayed an IC90 (neutralization of pseudovirus) in test [18] greater than 50 µg/mL.

1443_C16 (PG16) (TCN-116) (antibody): the neutralization IC50 in [4] is 0.0687 µg/mL; in [9] it was 0.127 µg/mL; in test [17], greater than 50 µg/mL. Also, the IC50, pseudovirus neutralization in [5] was greater than 50 µg/mL; in test [12], 0.01 µg/mL; in test [13], greater than 50 µg/mL; in [20], 0.01 µg/mL; in test [22], 0.004 µg/mL; in test [25] it was 0.11 µg/mL. Further, the IC50 (µg/ml), pseudovirus neutralization in [6] stood at 0.05 µg/mL; in test [7], 0.02 µg/mL; in [8], 0.15 µg/mL; in [10], 0.18 µg/mL; in [11], 0.01 µg/mL; in test [14] it was 0.31 µg/mL. The IC50 (µg/ml), pseudovirus neutralization in test [15] was 4.33 µg/mL; in [16], 0.29 µg/mL; in test [19], 0.01 µg/mL; in [21], 5.91 µg/mL; in test [23], 2.65 µg/mL; in test [24] it was greater than 50 µg/mL. In [18], this substance returned an IC90 (neutralization of pseudovirus) greater than 50 µg/mL.

In test [1], 4980_N08 (PGT-143) (antibody) displayed an IC50 (µg/mL), pseudovirus neutralization of 2.97 µg/mL. The same substance yielded an IC50, pseudovirus neutralization in test [2] greater than 50 µg/mL. Besides, the IC50 (µg/mL), single-round pseudovirus neutralization in [3] is greater than 50 µg/mL.

PGV04 (antibody): the IC50 (µg/mL), pseudovirus neutralization in test [26] is 0.027 µg/mL; in [27], 0.058 µg/mL; in test [1] it was 0.043 µg/mL; in [28], 0.171 µg/mL; in test [3] it was 0.569 µg/mL.

On to 4E10 (antibody), for which the values for the neutralization IC50 in [4], in test [9] and in [17] were 1.02 µg/mL, 1.9 µg/mL and 41.4 µg/mL, respectively. In addition, the IC50, pseudovirus neutralization amounted to 16.9 µg/mL in test [5]; 9.44 µg/mL in test [12]; 42.9 µg/mL in test [13]; 2.49 µg/mL in test [20]; 3.9 µg/mL in test [22]; 5.38 µg/mL in test [25]. In addition, the IC50 (µg/ml), pseudovirus neutralization in [6] stood at 5.84 µg/mL; in [7], 2.02 µg/mL; in test [8], 2.04 µg/mL; in test [10], 4.58 µg/mL; in [11], 0.55 µg/mL; in test [14], 2.61 µg/mL. In addition, the IC50 (µg/ml), pseudovirus neutralization in test [15] is 0.85 µg/mL; in test [16], 1.1 µg/mL; in test [19], 12 µg/mL; in test [21], 1.82 µg/mL; in [23], 5.94 µg/mL; in test [24], 10.6 µg/mL. For the same substance, the IC90 (neutralization of pseudovirus) in test [18] was 36.1 µg/mL.

The substance 4970_K22 (PGT-144) (antibody) registered an IC50 (µg/mL), pseudovirus neutralization in test [1] greater than 50 µg/mL. The IC50, pseudovirus neutralization in test [2] was greater than 50 µg/mL. Further, the IC50 (µg/mL), single-round pseudovirus neutralization in test [3] is greater than 50 µg/mL.

On to 4838_L06 (PGT-121) (antibody), for which the IC50, pseudovirus neutralization in test [29] was 2.44 µg/mL.

On to 1495_C14 (PGC14) (antibody), for which the neutralization IC50 in test [4] was 9.5 µg/mL; in test [9], greater than 50 µg/mL; in test [17], 0.637 µg/mL. Further, the IC50, pseudovirus neutralization in test [5] is greater than 50 µg/mL; in test [12], 29 µg/mL; in test [13], greater than 50 µg/mL; in test [20], greater than 50 µg/mL; in test [22] it was greater than 50 µg/mL; in test [25] it was greater than 50 µg/mL. The IC50 (µg/ml), pseudovirus neutralization is greater than 50 µg/mL in test [6]; 25 µg/mL in test [7]; greater than 50 µg/mL in test [8]; greater than 50 µg/mL in [10]; greater than 50 µg/mL in test [11]; greater than 50 µg/mL in test [14]. In addition, the IC50 (µg/ml), pseudovirus neutralization in test [15] was greater than 50 µg/mL; in test [16], 23 µg/mL; in test [19], greater than 50 µg/mL; in test [21], greater than 50 µg/mL; in test [23] it was greater than 50 µg/mL; in [24], greater than 50 µg/mL.

Regarding 4995_E20 (PGT-142) (antibody), in test [1], the IC50 (µg/mL), pseudovirus neutralization turned out to be 2.81 µg/mL. The same substance came in with an IC50, pseudovirus neutralization in [2] greater than 50 µg/mL. The IC50 (µg/mL), single-round pseudovirus neutralization in test [3] was greater than 50 µg/mL.

For 4993_K13 (PGT-141) (antibody), the IC50 (µg/mL), pseudovirus neutralization in test [1] was determined as 1.89 µg/mL. Moreover, the IC50, pseudovirus neutralization in test [2] was greater than 50 µg/mL. For the same substance, in test [3], the IC50 (µg/mL), single-round pseudovirus neutralization was greater than 50 µg/mL.

On to 4877_D15 (PGT-122) (antibody), for which, in test [27], the IC50 (µg/mL), pseudovirus neutralization was determined as 43.7 µg/mL. The IC50, pseudovirus neutralization in test [29] was 2.51 µg/mL.

Consider 1496_C09 (PG9) (TCN-109) (antibody), for which the IC50 (µg/mL), pseudovirus neutralization in [26] amounted to 0.019 µg/mL; in [1], 10.7 µg/mL; in [3] it was 0.04 µg/mL. Moreover, the figures for the neutralization IC50 in test [4] and in test [9] were 24.9 µg/mL and 0.111 µg/mL, respectively. Also, the IC50 (µg/ml), pseudovirus neutralization in test [6] worked out at 0.09 µg/mL; in test [8], 0.16 µg/mL; in test [10], 0.07 µg/mL; in [11], 0.04 µg/mL; in test [14], 0.23 µg/mL; in [15], 2.97 µg/mL. Moreover, the IC50 (µg/ml), pseudovirus neutralization in [16] is 0.12 µg/mL; in test [19], 0.03 µg/mL; in test [21] it was 0.37 µg/mL; in test [23] it was 0.65 µg/mL. The results for the IC50, pseudovirus neutralization in test [12], in [13] and in test [25] were 0.027 µg/mL, 6.86 µg/mL and 0.06 µg/mL, respectively. The substance also yielded an IC90 (neutralization of pseudovirus) in test [18] of 6.55 µg/mL.
